The record followed here is PMC10881513 (Nature Communications, 2024).

This test deals with T1, ASFV RNA polymerase subunit vRPB1 (African swine fever virus, strain BA71V, UniProt P42486 1-1450).
T1 sequence: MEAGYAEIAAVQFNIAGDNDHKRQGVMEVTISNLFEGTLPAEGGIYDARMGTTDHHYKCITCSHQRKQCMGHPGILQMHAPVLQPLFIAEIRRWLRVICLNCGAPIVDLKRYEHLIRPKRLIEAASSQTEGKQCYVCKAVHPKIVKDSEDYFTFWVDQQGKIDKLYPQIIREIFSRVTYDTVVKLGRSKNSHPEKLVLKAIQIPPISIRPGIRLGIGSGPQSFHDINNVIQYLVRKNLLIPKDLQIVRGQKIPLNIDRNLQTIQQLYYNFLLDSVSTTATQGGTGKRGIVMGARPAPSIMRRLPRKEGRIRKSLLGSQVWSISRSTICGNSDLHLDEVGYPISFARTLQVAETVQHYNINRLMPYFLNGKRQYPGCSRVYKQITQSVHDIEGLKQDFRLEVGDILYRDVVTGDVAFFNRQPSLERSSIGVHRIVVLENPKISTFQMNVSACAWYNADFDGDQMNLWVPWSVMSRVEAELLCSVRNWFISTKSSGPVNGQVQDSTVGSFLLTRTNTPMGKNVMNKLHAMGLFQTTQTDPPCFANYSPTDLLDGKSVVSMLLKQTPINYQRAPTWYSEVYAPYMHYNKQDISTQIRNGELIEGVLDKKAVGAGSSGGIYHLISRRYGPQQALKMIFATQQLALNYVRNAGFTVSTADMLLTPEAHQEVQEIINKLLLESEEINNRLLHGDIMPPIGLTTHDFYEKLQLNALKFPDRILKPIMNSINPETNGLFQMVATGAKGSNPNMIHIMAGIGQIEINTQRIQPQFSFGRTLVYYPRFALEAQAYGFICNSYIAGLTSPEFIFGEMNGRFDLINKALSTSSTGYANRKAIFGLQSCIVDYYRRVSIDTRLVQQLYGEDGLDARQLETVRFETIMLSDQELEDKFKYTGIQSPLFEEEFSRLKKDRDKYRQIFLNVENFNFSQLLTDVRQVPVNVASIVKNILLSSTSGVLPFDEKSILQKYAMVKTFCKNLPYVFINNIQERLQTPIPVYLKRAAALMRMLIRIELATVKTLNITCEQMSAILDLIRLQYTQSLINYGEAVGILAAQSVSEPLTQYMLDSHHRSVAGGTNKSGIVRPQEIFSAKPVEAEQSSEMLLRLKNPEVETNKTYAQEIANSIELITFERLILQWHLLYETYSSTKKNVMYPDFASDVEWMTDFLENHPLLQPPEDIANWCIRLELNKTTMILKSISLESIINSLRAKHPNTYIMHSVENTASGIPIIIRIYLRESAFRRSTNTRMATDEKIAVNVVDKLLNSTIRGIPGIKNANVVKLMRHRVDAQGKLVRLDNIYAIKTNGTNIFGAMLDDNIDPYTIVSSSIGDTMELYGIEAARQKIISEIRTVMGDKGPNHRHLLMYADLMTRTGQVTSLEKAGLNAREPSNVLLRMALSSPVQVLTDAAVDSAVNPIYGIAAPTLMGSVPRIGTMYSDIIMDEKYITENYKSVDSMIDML
Put plainly: cryo-EM structure. The following applies: both partners purified.

B1: ASFV RNA polymerase subunit vRPB2, His-ZZ-tag cleaved with TEV (natural protein)
chain: MEPLRPQITYGPIETVDNEELTEADMLSFISAAVNSTGLIGYNIKSFDDLMDNGIPQIVKQMFNVDITYKDQRDHTEIDKLRESVQIQFNFTDVNIERPQHRNYSQGNKINLLPNKARLCGLSYSGPVNLAAEVILTAHYSNGRQEVKRASIPPFQVSTFPIMRGSNRCHTHHLSKTAKKEIGEDPNEPGGYFIARGGEWVVDLLENIRFNTLHIHYHTMQQGNNEIIRGEFISQPGGAFENSSQIIIRYMTTGAITIEINSTKFSKLRIPWYLIFRMFGMTGDDSIIEQVVFDLESNSPVNTFMIEILEKSIHVLDPIFQPVQHEPNREKIIQFLSEKVSKFVSNPSAYKSDENAVQYLNERQLTILDKILLPHMGQTADTRVRKLRFLGLLIHKILLVIMNVFPPTDRDSYRTKRVHGSGVSLAKAFKAIFNTSVIAPIINGFKELLKQTAFEELTQRNIIEAFSAALSKNTASDLNRSMEQSIISGNKTIMVRQRPIVNRVSTQSLERKNLLNTISALRTVNTHNTTNASKQTERADMMRRVHASYPGYICVAQSADTGEKVGMSKQLAITANVCTAGEVLSLKQRLLSDPAIQQLADVSNKDIVRKGLARVFINGEWIGCCTNAFELAQRYRMFRREGKIVHPHTTIYWDSMVDEVEFWLDVGRLTRPLLIVDNNIEKYNQACYKAAEARKKGDKDWEKHKIPFIQNTRFTSQMAKDILAGTLTLEDLVAQGICEFITPEEAENCLVAFSIIELRKHKHDVTRRFTHVDVPQAILGLAALVSPYANCTQPARVTYETNQGRQTGGWYCFSWPYRVDMNRFFQFYNEMPLVKTIAHNYVIPNGLNTIVAYMIYGGYNQEDSVIVSQSFIDRGGFAGTFYREEKVELESDIESFGKPDPLITKNLKPGANYEKLVDGFVPVGTVVKKGDIIIGKVAKIRGEKDELNKYIDRSVMYGFDEPAVVDAVMRPHGPNDEIFGLMRLRYERNLNIGDKMSSRSGNKGIAALALPTSDMPFTEDGLQPDLIVNPHSHPSRMTNGQMIETTVGLANALQGVVTDGTAFLPINVQLLSERLAQEGLRFNGCQKMFNGQTGEYFDAAIFIGPTYHQRLQKFVLDDRYAVASYGPTDALTGQPLDGKRSHGGLRLGEMEHWVLTAQGAMQTIIEKSHDDSDGCISYICRNCGEPAIYNASHPIYKCMNCDVQADIGMVDSRRSSIVFQHEMRAANVNITSVLSPRVFQPA
As for B1, the binding result is given as “binds”.
